Measured values from patent US20030138894A1 (Human Genome Sciences, published 2003).
No end group written: not given here.

B1: ACE-2 binding polypeptide WPTCLTMDCVYN (peptide)
peptide: WPTCLTMDCVYN
modifications: not fully specified (N-terminus, C-terminus, bridges); cysteine pairing not given here
B2: ACE-2 binding polypeptide RGFCRDSSCSFP (peptide)
peptide: RGFCRDSSCSFP
modifications: not fully specified (N-terminus, C-terminus, bridges); cysteine pairing not given here
B3: ACE-2 binding polypeptide RIGCRDSRCNWWAPG (peptide)
peptide: RIGCRDSRCNWWAPG
modifications: not fully specified (N-terminus, C-terminus, bridges); cysteine pairing not given here
B4: ACE-2 binding polypeptide WAVCFDWEN-CGDK (peptide)
peptide: WAVCFDWENCGDK
modifications: not fully specified (bridges); printed as W A V C F D W E N - C G D K; cysteine pairing not given here
notes: one position printed as '-'
B5: ACE-2 binding polypeptide PFECDWGPWTLEMLCGPP (peptide)
peptide: PFECDWGPWTLEMLCGPP
modifications: not fully specified (N-terminus, C-terminus, bridges); cysteine pairing not given here
B6: ACE-2 binding polypeptide VYFCFDWEQDCDEM (peptide)
peptide: VYFCFDWEQDCDEM
modifications: not fully specified (N-terminus, C-terminus, bridges); cysteine pairing not given here
B7: ACE-2 binding polypeptide WVLCFEWEDCDEK (peptide)
peptide: WVLCFEWEDCDEK
modifications: not fully specified (N-terminus, C-terminus, bridges); cysteine pairing not given here
B8: ACE-2 binding polypeptide SPTCRALFCVDF (peptide)
peptide: SPTCRALFCVDF
modifications: not fully specified (N-terminus, C-terminus, bridges); cysteine pairing not given here

target: T1, FLAG-tagged ACE-2 target (human, UniProt Q9BYF1 18-740); test: phage ELISA on FLAG-ACE-2
T1 construct: range 1-740; obtained from Human Genome Sciences, Inc; also called FLAG-ACE-2; tagged human ACE-2; not shown: FLAG tag
Protocol: Phage enriched from the third round of selection were screened by ELISA for strong ACE-2 binders. Immulon 2 96-well plates (Dynatech) were coated with streptavidin for 1 hour at 37° C. and subsequently coated with anti-FLAG antibody for 1 hour at room temperature. Half of the plates were further coated with FLAG-ACE-2 as the target plates, and the other half of the plates were coated with FLAG peptide as background plates. The amount of each protein or peptide coated was 100 ng per well. The coated plates were then incubated for 1 hour at room temperature with 1:2 diluted overnight phage cultures that were made by inoculating phage from individual plaques into bacterial host cells. After being washed 7 times with PBST, the plates were incubated with HRP-conjugated anti-M13 antibody (Pharmacia) for 1 hour at room temperature, washed 5 times, developed with TMB peroxidase substrate solution (Kirkegaad & Perry Laboratories, Gaithersburg, Md.), and read at 630 nm on an ELISA plate reader.

T1 sequence (Q9BYF1 18-740 limits assumed): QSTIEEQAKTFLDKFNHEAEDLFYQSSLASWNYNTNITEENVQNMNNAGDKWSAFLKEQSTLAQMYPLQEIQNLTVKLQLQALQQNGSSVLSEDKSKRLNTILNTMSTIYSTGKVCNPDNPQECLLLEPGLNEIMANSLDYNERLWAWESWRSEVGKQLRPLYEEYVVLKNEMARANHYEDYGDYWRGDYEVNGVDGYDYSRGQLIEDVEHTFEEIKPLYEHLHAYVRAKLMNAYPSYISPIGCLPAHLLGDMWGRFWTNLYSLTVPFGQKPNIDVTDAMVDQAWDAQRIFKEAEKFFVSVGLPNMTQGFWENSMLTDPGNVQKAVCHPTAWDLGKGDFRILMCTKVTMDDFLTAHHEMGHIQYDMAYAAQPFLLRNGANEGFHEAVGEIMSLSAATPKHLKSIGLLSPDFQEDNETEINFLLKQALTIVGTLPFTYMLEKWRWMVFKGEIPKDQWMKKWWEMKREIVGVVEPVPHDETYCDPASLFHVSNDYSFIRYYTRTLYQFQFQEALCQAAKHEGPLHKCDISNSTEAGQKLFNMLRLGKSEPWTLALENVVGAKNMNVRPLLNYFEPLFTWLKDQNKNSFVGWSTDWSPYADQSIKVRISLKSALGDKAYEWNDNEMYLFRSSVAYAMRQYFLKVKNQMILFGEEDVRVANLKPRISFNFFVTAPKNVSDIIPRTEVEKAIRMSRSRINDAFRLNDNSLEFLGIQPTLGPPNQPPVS

Binding result, binds:
VGFCFDWEPCDEL (not fully specified (bridges); cysteine pairing not given here) [ACE-2 binding polypeptide VGFCFDWEPCDEL], FLLCFDWDIDWEYGCQHH (not fully specified (bridges); cysteine pairing not given here) [ACE-2 binding polypeptide FLLCFDWDIDWEYGCQHH], B1, NIFCFDWEPCHFG (not fully specified (bridges); cysteine pairing not given here) [ACE-2 binding polypeptide NIFCFDWEPCHFG], FLFCRLASRDSRCASP (not fully specified (bridges); cysteine pairing not given here) [ACE-2 binding polypeptide FLFCRLASRDSRCASP], NDVCLNDDCVYG (not fully specified (bridges); cysteine pairing not given here) [ACE-2 binding polypeptide NDVCLNDDCVYG], SGECNWQQFSGWEICLRD (not fully specified (bridges); cysteine pairing not given here) [ACE-2 binding polypeptide SGECNWQQFSGWEICLRD], DYLCFDWEACWLS (not fully specified (bridges); cysteine pairing not given here) [ACE-2 binding polypeptide DYLCFDWEACWLS], FEICFDWEVCHEQ (not fully specified (bridges); cysteine pairing not given here) [ACE-2 binding polypeptide FEICFDWEVCHEQ], B2, SIYCFDWEDCWDE (not fully specified (bridges); cysteine pairing not given here) [ACE-2 binding polypeptide SIYCFDWEDCWDE], B3, SENCQALFCVDF (not fully specified (bridges); cysteine pairing not given here) [ACE-2 binding polypeptide SENCQALFCVDF], RGWCLDSRCKVF (not fully specified (bridges); cysteine pairing not given here) [ACE-2 binding polypeptide RGWCLDSRCKVF], B4, B5, IGFCFEWEVCYEG (not fully specified (bridges); cysteine pairing not given here) [ACE-2 binding polypeptide IGFCFEWEVCYEG], AYLCDWILFDSFEMCLAP (not fully specified (bridges); cysteine pairing not given here) [ACE-2 binding polypeptide AYLCDWILFDSFEMCLAP], HFSCRLPSLDSRCQLW (not fully specified (bridges); cysteine pairing not given here) [ACE-2 binding polypeptide HFSCRLPSLDSRCQLW], HLRCMTSDCIHF (not fully specified (bridges); cysteine pairing not given here) [ACE-2 binding polypeptide HLRCMTSDCIHF], YEYCFEWEQCWEK (not fully specified (bridges); cysteine pairing not given here) [ACE-2 binding polypeptide YEYCFEWEQCWEK], RGHCRDSRCMMNAPG (not fully specified (bridges); cysteine pairing not given here) [ACE-2 binding polypeptide RGHCRDSRCMMNAPG], MDFCFDWEECWTN (not fully specified (bridges); cysteine pairing not given here) [ACE-2 binding polypeptide MDFCFDWEECWTN], B6, YDWCFDWEQCWDQ (not fully specified (bridges); cysteine pairing not given here) [ACE-2 binding polypeptide YDWCFDWEQCWDQ], HYNCHTNDCVVL (not fully specified (bridges); cysteine pairing not given here) [ACE-2 binding polypeptide HYNCHTNDCVVL], FFPCRALEKDSRCSFF (not fully specified (bridges); cysteine pairing not given here) [ACE-2 binding polypeptide FFPCRALEKDSRCSFF], YWFCFDWEEDANGHCGGN (not fully specified (bridges); cysteine pairing not given here) [ACE-2 binding polypeptide YWFCFDWEEDANGHCGGN], B7, WQFCFDWDLNCDLR (not fully specified (bridges); cysteine pairing not given here) [ACE-2 binding polypeptide WQFCFDWDLNCDLR], YQFCFDWETTCWLD (not fully specified (bridges); cysteine pairing not given here) [ACE-2 binding polypeptide YQFCFDWETTCWLD], YEECHWRPMACSTH (not fully specified (bridges); cysteine pairing not given here) [ACE-2 binding polypeptide YEECHWRPMACSTH], FNPCRLQSRDSACRFR (not fully specified (bridges); cysteine pairing not given here) [ACE-2 binding polypeptide FNPCRLQSRDSACRFR], FQLCFDWEEECEES (not fully specified (bridges); cysteine pairing not given here) [ACE-2 binding polypeptide FQLCFDWEEECEES], B8, YAMCFDWDECFLG (not fully specified (bridges); cysteine pairing not given here) [ACE-2 binding polypeptide YAMCFDWDECFLG], HSECRWEWFGRTMICMSF (not fully specified (bridges); cysteine pairing not given here) [ACE-2 binding polypeptide HSECRWEWFGRTMICMSF], GIFCFEWETCYQA (not fully specified (bridges); cysteine pairing not given here) [ACE-2 binding polypeptide GIFCFEWETCYQA]
